# In publication PMC10139940:
# Target: Active site-blocked human EGR-bound FIXa (human) (UniProt P00740)
# Experiment: SPR
# UniProt P00740, sequence (P00740 47-191, chain 1 of 2): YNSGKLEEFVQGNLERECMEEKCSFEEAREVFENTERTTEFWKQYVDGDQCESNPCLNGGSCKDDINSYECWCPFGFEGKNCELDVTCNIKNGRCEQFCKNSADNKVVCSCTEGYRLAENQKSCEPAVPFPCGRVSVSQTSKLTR
# UniProt P00740, sequence (P00740 227-461, chain 2 of 2): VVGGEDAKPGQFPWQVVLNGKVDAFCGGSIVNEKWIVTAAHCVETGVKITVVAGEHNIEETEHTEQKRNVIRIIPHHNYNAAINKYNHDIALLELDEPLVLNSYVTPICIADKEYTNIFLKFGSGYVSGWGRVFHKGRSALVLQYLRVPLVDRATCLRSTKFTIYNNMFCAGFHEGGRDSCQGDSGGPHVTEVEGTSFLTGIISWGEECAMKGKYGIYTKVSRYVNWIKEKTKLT
row,Kd,Substance
1,4.7 nM,B domain-deleted FVIII double mutant K1813A/K1818A (natural protein)
2,3.9 nM,B domain-deleted FVIII mutant K1813A (natural protein)
3,5.1 nM,B domain-deleted FVIII mutant K1818A (natural protein)
4,6.3 nM,B domain-deleted WT-FVIII lacking Q744-S1637 (natural protein)
